Data from the supplement of paper PMC10201428.
± gives the standard deviation of the averaged measurements.

How the values were obtained:
[1] = tested on: VchCAST RNA-guided transposition machinery (E. coli BL21(DE3) host, lacZ target); assay: relative integration efficiency (T-RL orientation) vs wild-type transposon end (log2 (normalized fold change)); transposon end mutated: right end (5 bp flank + 75 bp right end); higher = more efficient transposition
In short: (§1)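 Pools of 1549 left-end or 1849 right-end barcoded transposon variants were cloned into a pUC57 mini-transposon donor and co-transformed into E. coli BL21(DE3) with a T7-driven effector plasmid carrying a CRISPR array, tniQ-cas8-cas7-cas6 and tnsA-tnsB-tnsC. Plating used 0.1 mM IPTG at 37°C for 18 h, and input plasmids and genomic integration junctions were PCR-amplified for Illumina sequencing, with two biological output replicates and four reference barcodes. Relative integration efficiency is the log-transformed fold change of output over input barcode abundance, normalised to the reference barcodes.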

[2] = tested on: VchCAST RNA-guided transposition machinery (E. coli BL21(DE3) host, lacZ target); assay: relative integration efficiency (T-LR orientation) vs wild-type transposon end (log2 (normalized fold change)); transposon end mutated: right end (5 bp flank + 75 bp right end); higher = more efficient transposition
In short: as §1

Sequence	relative integration efficiency (log2) [1]	relative integration efficiency (log2) [2]
ACATTTGTTGATACAACCATAAAAGGATCATTACCCCCATAAATTGATAATTATCACACCCAATTTAACTATAACGCTCTGATCATAGTCAGACCAACATTGCTACGACCCGTATTCGCACCGACAC	-2.28 ± 0.24	0.679 ± 0.16
ACATTTGTTGATACAACCATAAAATGATAATTACACCCATAAATTGATAATTATCACACCCATAAATTGATATTGCCTCTGATAACTTGGTATAGCATACATTATACGAACGGTATCGCACCGACAC	-0.811 ± 0.36	0.663 ± 0.24
ACATTTGTTGATATGTTGATACAACCATAAAATGATAATTACACCCATAAATTGATAATTATCACACCCATAAATTGATATTGCCTCTGATCATAGTCAGACCAACATTGCTACGACCCGTATTCGC	-0.0755 ± 0.058	0.26 ± 0.15
ACATTGGTTCATACAACCATAAAATGATAATTACACCCATAAATTCATAATTATCACACCCAATTTAACTATAACGCTCTGATCATAGTCAGACCAACATTGCTACGACCCGTATTCGCACCGACAC	-6.669 ± 0.029	-6.28 ± 2.6
ACATTTGTTGATACAACCATAAAAGGATAATTACACCCATCAATTGATAATTATCACACCCAATTTAACTATAACGCTCTGATCATAGTCAGACCAACATTGCTACGACCCGTATTCGCACCGACAC	-2.32 ± 0.29	1.06 ± 0.24
ACATTTGTTGATACAACCATAAAATGATAATTCACAAACGCCCGGTCGCCGGCGACACAAACGCCCGGTCGCGGTAAGAGGATCATAGTCAGACCAACATTGCTACGACCCGTATTCGCACCGACAC	-1.9 ± 0.14	1.4 ± 0.079
ACATTGGTCGATACAACCATAAAATGATAATTACACCCATAAATTGATCATTATCACACCCAATTTAACTATAACGCTCTGATCATAGTCAGACCAACATTGCTACGACCCGTATTCGCACCGACAC	-7.023 ± 0.019	-5.922 ± 0.042
ACATTTGTTGATACTTGGATAAAATGATAATTACACCCATAAATTGATAATTATCACACCCATAAATTGATATTGCCTCTGATCATAGTCAGACCAACATTGCTACGACCCGTATTCGCACCGACAC	-0.966 ± 0.23	-1.07 ± 0.2
ACATTTGTTGATACAACCATAAAATGATAATTACACCCATATTTTGATAATTATCACACCCATAAATTGATATTGCCTCTGATCATAGTCAGACCAACATTGCTACGACCCGTATTCGCACCGACAC	-0.188 ± 0.015	0.00197 ± 0.1
ACATTTGTTGATACAACCATAAAATGATCATTACCCCCATCAATTGATAATTATCCCACCCCATTTAACTATAACGCTCTGATCATAGTCAGACCAACATTGCTACGACCCGTATTCGCACCGACAC	-3.97 ± 0.23	-0.338 ± 0.22
ACATTTGTTGATACAACCATAAAATGATCATTACCCCCATAAATTGATAATTATCACACCCCATTTAACTATAACGCTCTGATCATAGTCAGACCAACATTGCTACGACCCGTATTCGCACCGACAC	-1.23 ± 0.22	2.423 ± 0.013
ACATTTGTTGATACAACCATAAAATTCTAATTACACCCATAAATTGATAATTATCACACCCATAAATTGATATTGCCTCTGATCATAGTCAGACCAACATTGCTACGACCCGTATTCGCACCGACAC	-1.85 ± 0.18	-1.38 ± 0.16
ACATTTGTTGATCCAACCATAAAATGATAATTACACCCATAAATTCATAATTATCACACCCAATTTAACTATAACGCTCTGATCATAGTCAGACCAACATTGCTACGACCCGTATTCGCACCGACAC	-2.07 ± 0.2	0.916 ± 0.17
ACTATTGTTGATACAACCATAAAATGATAATTACACCCATAAATTGATAATTATCACACCCATAAATTGATATTGCCTCTGATCATAGTCAGACCAACATTGCTACGACCCGTATTCGCACCGACAC	0.151 ± 0.07	0.436 ± 0.12
ACATTTGTTGATACAACCATAAAGTGATATTTACACCCATAAATTGATATTGCTCACACCCATAAATTGATAATTACTCTGATCATAGTCAGACCAACATTGCTACGACCCGTATTCGCACCGACAC	-0.232 ± 0.12	0.595 ± 0.26
ACATTTGTTGATACAACCATAAAGTGATATTTACAACCATAAAGTGATATTTATCACAACCATAAAGTGATATTTACTCTGATCATAGTCAGACCAACATTGCTACGACCCGTATTCGCACCGACAC	0.0208 ± 0.11	0.061 ± 0.087
ACATTTGTCGATACAACCCTAAAATGATAATTACACCCATAAATTGATAATTATCACCCCCAATTTAACTATAACGCTCTGATCATAGTCAGACCAACATTGCTACGACCCGTATTCGCACCGACAC	-2.33 ± 0.4	0.88 ± 0.35
ACATTTGTTGATACAACCATAAAATGATAATTAATAATTATTTATAATCAGCAACTTAACCACAACACCCATAAATTGATAATTATCAACAAACGCCCGGTCGCGGTACTCTGATCATAGTCAGACC	-3.33 ± 0.27	-0.0981 ± 0.042

Sequence	relative integration efficiency (log2) [1]	relative integration efficiency (log2) [2]
ACATTTGTTGATACAACCATAAAATGATAATTACACCCATAAATTGATAATTAGACACAAACGCCCGGTCGCGGTAAGAGGATCATAGTCAGACCAACATTGCTACGACCCGTATTCGCACCGACAC	-0.538 ± 0.21	2.66 ± 0.16
ACATTTGTCGATACAACCATAAAATGATAATTACACCCATAAATTGATCATTATCACCCCCAATTTAACTATAACGCTCTGATCATAGTCAGACCAACATTGCTACGACCCGTATTCGCACCGACAC	-1.31 ± 0.19	2.13 ± 0.24
ACATTTGTTGATACAACCATTAAATGTTAATTCCACCCATAAATTGATAATTATCACACCCAATTTAACTATAACGCTCTGATCATAGTCAGACCAACATTGCTACGACCCGTATTCGCACCGACAC	-1.56 ± 0.23	1.73 ± 0.32
ACATTTGTTGATACAACCATAAAATGATAATTACACCCATAAATTGATAATTATCACACCCATAAATTGATATTGCCTCTGGCGCTCTGTACCCCGCTCGGTCCTCCCGCGCATCGCGCACCGACAC	0.194 ± 0.14	-0.0593 ± 0.17
ACATTTGTTGATACAACCATAAGTTGATATTTTCACCCATAAATTGATAATTATCAGTGGGTATTTAACTATAACGCTCTGATCATAGTCAGACCAACATTGCTACGACCCGTATTCGCACCGACAC	-1 ± 0.34	2.55 ± 0.051
ACATTTGTTGATACAACCATAAAATGATAATTAATAATTATTTCACCCATAAATTGATAATTATCAACAAACGCCCGGTCGCGGTACTCTGATCATAGTCAGACCAACATTGCTACGACCCGTATTC	-2.91 ± 0.43	0.365 ± 0.079
ACATTTGTTGATACAACCATAAAGTGATATTTACAACCATAAAATGATAATTATCACAACCATAAAGTGATATTTACTCTGATCATAGTCAGACCAACATTGCTACGACCCGTATTCGCACCGACAC	0.0289 ± 0.14	0.103 ± 0.36
ACATTGGTGGATACAACCATAAAATGATAATTACACCCATAAATTCATAATTATCACACCCAATTTAACTATAACGCTCTGATCATAGTCAGACCAACATTGCTACGACCCGTATTCGCACCGACAC	-6.19 ± 0.92	-4.36 ± 0.31
ACATTTGTTGATACAACCATAAAATGATAATTACACCCATAAATTGATAATTATCACACCCATAAATTGATATTGCCTCTGATCATAGTCACAACCATAAAATGATAATTAGACCAAGCACCGACAC	-0.196 ± 0.19	-0.387 ± 0.086
ACATTTGTTGATACAACCATATATTGATATCTCCAACCATAAGTTGATATTTTTCACAACCATAAAGTGATATTTACTCTGATCATAGTCAGACCAACATTGCTACGACCCGTATTCGCACCGACAC	-0.225 ± 0.017	-0.0291 ± 0.26
ACATTTGTTGATACAACCATAAAATCATAATTACCCCCATAAATTGATAATTATCCCACCCCATTTAACTATAACGCTCTGATCATAGTCAGACCAACATTGCTACGACCCGTATTCGCACCGACAC	-3.28 ± 0.32	0.676 ± 0.046
ACATTTGTTGATACAACCAATAAATGATTATTACACCCATAAATTGATAATAATGACACCGAATTTAACTATAACGCTCTGATCATAGTCAGACCAACATTGCTACGACCCGTATTCGCACCGACAC	0.0749 ± 0.43	3.45 ± 0.19
ACATTTGTTGATACAACCATAAGTTGATATTTTCAACCATATATTGATATCTCTCACAACCATAAAGTGATATTTACTCTGATCATAGTCAGACCAACATTGCTACGACCCGTATTCGCACCGACAC	-0.324 ± 0.14	-0.077 ± 0.032
ACATTTGTTGATACAACCATAAAATGATAATTACCCCCATCAATTGATAATTATCCCACCCAATTTAACTATAACGCTCTGATCATAGTCAGACCAACATTGCTACGACCCGTATTCGCACCGACAC	-2.38 ± 0.22	0.511 ± 0.036
ACATTTGTTGATACAACCATAAAATCATAATTACACCCATAAATTGATAATTATCCCACCCCATTTAACTATAACGCTCTGATCATAGTCAGACCAACATTGCTACGACCCGTATTCGCACCGACAC	-2.73 ± 0.22	1.23 ± 0.046
ACATTTGTTGATACAACCATAAAATGATAATTACACCCATAAATTGATAATTATCCACAAACGCCCGGTCGCGGTAAGAGGATCATAGTCAGACCAACATTGCTACGACCCGTATTCGCACCGACAC	-0.795 ± 0.075	2.3 ± 0.11
ACATTTCTTGATACAACCATAAAATGATAATTACACCCATAAATGGATCATTATCACACCCAATTTAACTATAACGCTCTGATCATAGTCAGACCAACATTGCTACGACCCGTATTCGCACCGACAC	-2.34 ± 0.22	0.00332 ± 0.054
